Measurements as given in the RNAGym collection of RNA variant scans (doi:10.7554/elife.80360).

B1: CPEB3 Ribozyme (parent)
chain: GGGGGCCACAGCAGAAGCGUUCACGUCGCGGCCCCUGUCAGAUUCUGGUGAAUCUGCGAAUUCUGCUGU

Variants of: B1
Assay: self-cleavage, relative activity (ratio to wild type); higher = more cleavage; co-transcriptional
Variant A23U U55G has a self-cleavage of 0.908.
Variant A23U U55A has a self-cleavage of 0.877.
Work on U26A A59C yielded a self-cleavage of 0.322.
For C24U A51U, the self-cleavage was 0.785.
Work on C24U A51G yielded a self-cleavage of 0.774.
In the case of C24U U69C, the self-cleavage is reported as 1.02.
C24U G58A gave a self-cleavage of 0.516.
C24G G25U showed a self-cleavage of 0.104.
Variant U26A U43A has a self-cleavage of 0.846.
For G25U C32U, the self-cleavage was 0.228.
For G25U C32A, the self-cleavage was 0.162.
With U26A G30C the self-cleavage was 0.266.
With U26A G30U the self-cleavage was 0.254.
C24A G65A gave a self-cleavage of 0.441.
Work on C24A G65U yielded a self-cleavage of 0.303.
Work on C24A G65C yielded a self-cleavage of 0.245.
G25C U36A showed a self-cleavage of 0.201.
G25C U36C showed a self-cleavage of 0.24.
G25A U26A gave a self-cleavage of 0.186.
With G25A U62G the self-cleavage was 0.16.
For C24U U49C, the self-cleavage was 0.84.
In the case of C24U U49A, the self-cleavage is reported as 0.865.
For C24U A52G, the self-cleavage was 0.819.
Work on C24U A52U yielded a self-cleavage of 0.81.
G25A G50A gave a self-cleavage of 0.195.
In the case of G25A G50U, the self-cleavage is reported as 0.267.
G25A G50C gave a self-cleavage of 0.28.
Work on G25C C27A yielded a self-cleavage of 0.146.
With U26A C57A the self-cleavage was 0.355.
With G25U G30U the self-cleavage was 0.162.
For G25A U61A, the self-cleavage was 0.173.
With C24A C27U the self-cleavage was 0.168.
Variant C24U U36A has a self-cleavage of 0.181.
Work on C24U U36C yielded a self-cleavage of 0.37.
With G25U G68A the self-cleavage was 0.204.
C24G G37U showed a self-cleavage of 0.278.
G25C C29A gave a self-cleavage of 0.143.
With G25U G58U the self-cleavage was 0.186.
A23U G48C showed a self-cleavage of 1.06.
With G25C G56C the self-cleavage was 0.164.
Variant G25C G56U has a self-cleavage of 0.256.
In the case of C24U U53G, the self-cleavage is reported as 0.482.
Work on C24U U53A yielded a self-cleavage of 0.64.
In the case of G25A G30U, the self-cleavage is reported as 0.209.
G25C G65A showed a self-cleavage of 0.216.
For U26A C39U, the self-cleavage was 0.722.
Work on U26A C39A yielded a self-cleavage of 0.477.
U26A C39G showed a self-cleavage of 0.798.
Variant G25C A60U has a self-cleavage of 0.114.
With C24A C32G the self-cleavage was 0.234.
C24A C54G showed a self-cleavage of 0.549.
Work on C24A C54A yielded a self-cleavage of 0.516.
Variant C24A U69C has a self-cleavage of 0.972.
U26A G41A gave a self-cleavage of 0.561.
Variant U26A G41U has a self-cleavage of 0.67.
Variant U26A C34A has a self-cleavage of 0.436.
Work on G25C G50C yielded a self-cleavage of 0.179.
With C24U U62G the self-cleavage was 0.386.
With U26A C35G the self-cleavage was 0.207.
Variant C24U U67A has a self-cleavage of 0.862.
C24A U26C showed a self-cleavage of 0.507.
A23U G37U gave a self-cleavage of 0.347.
Work on A23U G37C yielded a self-cleavage of 0.149.
A23U G37A showed a self-cleavage of 0.384.
C24G C33A gave a self-cleavage of 0.206.
Variant C24G C33G has a self-cleavage of 0.201.
With G25U U38C the self-cleavage was 0.13.
G25U U38A gave a self-cleavage of 0.168.
In the case of A23U G65U, the self-cleavage is reported as 0.811.
U26A C27A showed a self-cleavage of 0.424.
For U26A G58U, the self-cleavage was 0.852.
U26A G58A showed a self-cleavage of 0.627.
Work on U26A G58C yielded a self-cleavage of 0.792.
For U26A G50U, the self-cleavage was 0.818.
C24U A60U gave a self-cleavage of 0.299.
With C24U A60G the self-cleavage was 0.464.
U26A C54G gave a self-cleavage of 0.758.
For U26A C54A, the self-cleavage was 0.655.
In the case of G25C U26C, the self-cleavage is reported as 0.319.
Variant G25C U26G has a self-cleavage of 0.176.
Variant G25C U26A has a self-cleavage of 0.252.
G25U C27A gave a self-cleavage of 0.213.
For G25U C27U, the self-cleavage was 0.164.
